The text below walks through data of patent publication EP2975062B1.

In this experiment the target is c-mpl receptor (TPO receptor), expressed from c-mpl-pcDNA3.1 in NIH-3T3 cells. Put plainly: cell-based or functional assay.

As to “recombinant human TPO (rhTPO) (from UniProt P40225 22-353) (ligand)”, the The relative fluorescence ratio (firefly/Renilla luciferase, c-fos-pGL3 reporter, NIH-3T3 transfected with c-mpl-pcDNA3.1) was 1.65.
